The values that follow come from publication PMC12691643.

Holding throughout (experiment): affinity purification with mass spectrometry; HA-tagged TgWIP variants pulled down by the HA tag from lysates of DC2.4 cells infected 4 h at MOI 7; host partners by mass spectrometry; values are negative fold changes in peptide counts of the mutant immunoprecipitations relative to TgWIP^WT
The target in experiment [1] is TgWIP^Y150A/Y199A, HA-tagged (Toxoplasma gondii).
For experiment [2], the target named is TgWIP^(PRR3 mut), HA-tagged (Toxoplasma gondii).
Experiment [3] addresses TgWIP^(WIRS mut), HA-tagged (Toxoplasma gondii).
For experiment [4], the target named is TgWIP^(PRR2 mut), HA-tagged (Toxoplasma gondii).

B1: Brk1 (Hspc300), endogenous in murine DC2.4 cells (natural protein)
chain: MAGQEDPVQREIHQDWANREYIEIITSSIKKISDFLNSFDMSCRSRLATLNEKLTALERRIEYIEARVTKGETLT
As to B1, the negative fold change in peptide counts relative to TgWIP^WT in experiment [1] worked out at 1 fold; in experiment [2], 9 fold; in experiment [3] it was 3 fold; in experiment [4], 4 fold.

B2: Sorbs1 (Cap), endogenous in murine DC2.4 cells (natural protein)
chain: MSSECDVGSSKAVVNGLASGNHGPDKDMDPTKICTGKGTVTLRASSSYRGTPSSSPVSPQESPKHESKSGLEPEDPSADEWKLSSSADTNGNAQPSPLAAKGYRSVHPSLSADKPQGSPLLNEVSSSHIETDSQDFPPTSRPSSAYPSTTIVNPTIVLLQHNRDPASERRAGEQDPVPTPAELTSPGRASERRAKDASRRVVRSAQDLSDVSTDEVGIPLRNTERSKDWYKTMFKQIHKLNRDDDSDVHSPRYSFSDDTKSPLSVPRSKSEMNYIEGEKVVKRSATLPLPARSSSLKSSPERNDWEPLDKKVDTRKYRAEPKSIYEYQPGKSSVLTNEKMSRDISPEEIDLKNEPWYKFFSELEFGRPTNLEKDLSFCQAELEADLEKVETVNKSPSANSPQSSAVSPTPDITSEPPGYIYSSNFHAVKRESDGTPGGLASLENERQIYKSVLEGGDIPLQGLSGLKRPSSSASTKVDRKGGNAHMISSSSVHSRTFHTSNALGPGCKHKKPLSAAKACISEILPSKFKPRLSAPSALLQEQKSVLLPSEKAQSCENLCVSLNDSKRGLPLRVGGSIENLLMRSRRDYDSKSSSTMSLQEYGTSSRRPCPLSRKAGLHFSMFYRDMHQINRAGLSLGSISSSSVRDLASHFERSSLTLARGELGASQEGSEHIPKHTVSSRITAFEQLIQRSRSMPSLDFSGRLSKSPTPVLSRSGLTSARSAESLLESTKLRPREMDGMDSGGVYASPTCSNMADHALSFRSLVPSEPLSICSDELDHCSNVSNDSREGSGGSVHGDFPKHRLNKCKGTCPASYTRFTTIRKHEQQSSRQSDWRSDSRGDKNSLLRNIHLMSPLPFRLKKPLQQHPRQPPPSDSSESPAGQKADLPCHDPQDQPHSAGKPQVPTRLSSRHTMARLSHNSEPPLDRPAGLEDCTRAINNGNPVPYSDHGLDRNNNPQSELAAAHGDSESPRHFIPADYLESTEEFIRRRHDDKEKLLADQRRLKREQEEADIAARRHTGVIPTHHQFITNERFGDLLNIDDTAKRKSGLEMRPARAKFDFKAQTLKELPLQKGDVVYIYRQIDQNWYEGEHHGRVGIFPRTYIELLPPAEKAQPRKLAPVQVLEYGEAIAKFNFNGDTQVEMSFRKGERITLLRQVDENWYEGRIPGTSRQGIFPITYVDVLKRPLVKTPVDYIDLPYSSSPSRSATVSPQQPQAQQRRVTPDRSQPSLDLCSYQALYSYVPQNDDELELRDGDIVDVMEKCDDGWFVGTSRRTRQFGTFPGNYVKPLYL
B2: the negative fold change in peptide counts relative to TgWIP^WT in experiment [1] is 1 fold; in experiment [2], 30 fold; in experiment [3], 2 fold; in experiment [4] it was 14 fold.

B3: Abi3, endogenous in murine DC2.4 cells (natural protein)
chain: MAELQQLQQLQEFDIPTGREALRGNHSALLRVANYCEDNYLQATDKRKALEETMAFTTQALASVAYQVGNLAGHTLRMLDLQGAALRQVEAKMSTLGQMVNMHMEKVARREIGTLATVVRLPSNQKVIPPESLPSLTPYHRKPLNFACLDDIGHGVKDLSTQLSRTGTLSRKSIKAPATPVSATLGRPPRIPEPVQLPAVPDGKLSAASSASSLASAGSAEGASGIPQSKGQVAPATPPPPPVAPVTPPPPPLSAEVFLPPPPLEVSQPPLEAELPLPPPPALEGDELGLLPPPPPGFGPDEPSWVPASYLEKVVTLYPYTRQKDNELSFSEGTVICVTRRYSDGWCEGVSSEGTGFFPGNYVEPSC
For the molecule B3, the negative fold change in peptide counts relative to TgWIP^WT in experiment [1] amounted to 1 fold; in experiment [2], 7 fold; in experiment [3], 1 fold; in experiment [4], 3 fold.

B4: Sh3rf1, endogenous in murine DC2.4 cells (natural protein)
chain: MDESALLDLLECPVCLERLDASAKVLPCQHTFCKRCLLGIVGSRNELRCPECRTLVGSGVDELPSNILLVRLLDGIKQRPWKPGPGGGGGTTCTNTLRAQGSTVVNCGSKDLQSSQCGQQPRVQAWSPPVRGIPQLPCAKALYNYEGKEPGDLKFSKGDIIILRRQVDENWYHGEVSGVHGFFPTNFVQIIKPLPQPPPQCKALYDFEVKDKEADKDCLPFAKDDVLTVIRRVDENWAEGMLADKIGIFPISYVEFNSAAKQLIEWDKPPVPGVDTAECPSATAQSTSASKHPDTKKNTRKRHSFTSLTMANKSSQGSQNRHSMEISPPVLISSSNPTAAARISELSGLSCSAPSQVHISTTGLIVTPPPSSPVTTGPAFTFPSDVPYQAALGSMNPPLPPPPLLAATVLASTPSGATAAVAAAAAAAAAAGMGPRPVMGSSEQIAHLRPQTRPSVYVAIYPYTPRKEDELELRKGEMFLVFERCQDGWYKGTSMHTSKIGVFPGNYVAPVTRAVTNASQAKVSMSTAGQASRGVTMVSPSTAGGPTQKPQGNGVAGNPSVVPTAVVSAAHIQTSPQAKVLLHMSGQMTVNQARNAVRTVAAHSQERPTAAVTPIQVQNAACLGPASVGLPHHSLASQPLPPMAGPAAHGAAVSISRTNAPMACAAGASLASPNMTSAMLETEPSGRTVTILPGLPTSPESAASACGNSSAGKPDKDSKKEKKGLLKLLSGASTKRKPRVSPPASPTLDVELGAGEAPLQGAVGPELPLGGSHGRVGSCPTDGDGPVAAGTAALAQDAFHRKTSSLDSAVPIAPPPRQACSSLGPVMNEARPVVCERHRVVVSYPPQSEAELELKEGDIVFVHKKREDGWFKGTLQRNGKTGLFPGSFVENI
On to B4, for which the negative fold change in peptide counts relative to TgWIP^WT in experiment [1] is 2 fold; in experiment [2], 6 fold; in experiment [3] it was 2 fold; in experiment [4], 10 fold.

B5: Nckap1l (Hem1), endogenous in murine DC2.4 cells (natural protein)
chain: MSLTSAYQLKLAEKLTILNDRGQGVLIRMYNIKKTCSDSKSKPPFLLEKSMESCLKYINKKFPNIDVRNSTQHLGPVHREKAEIIRFLTNYYQSFVDVMEFRDHVYELLNTIDACQCHFDINLNFDFTRSYLDLIVTYTSVILLLSRIEDRRILIGMYNCAHEMLHGHSDPSFARLGQMVLEYDHPLKKLTEEFGPHTKAVSGALLSLHFLFVRRNQGAEQWRSAQLLSLISSPPAMINPANSDTMACEYLSVEVMERWIIIGFLLCHGCLNSNSQCQKLWKLCLEGSLYITLIREDVLQVHKVTEDLFSSLKGYSKRVADIKESKEHAITNSGQFHCQRRQFLRTAVKELETVLNDEPGLLGPKALFAFMALSFIRDEVTWLVRHTENVTKTKTPEDYADSSIAELLFLLEEIRALVRRHIKVIQQYHLQYLARFDVLVLSDIIQNLSVCPEEESVIMSSFVSILSSLNLKQVDNEEKFDFSGLRLDWFRLQAYTSVSKAPLHLHENPDLAKVMNLIIFHSQMLDSVEKMLVETSDLSTFCFHLRTFEKMFATTLEEPTMLRYTIAFPLICAHFVHCVHEMCPEEYPHLKNHGLHHCNSFLEDLAKQTSNCVLEICAEQRNLNEQLLPKHCATTISKAKNKKSMKQRQAPRKGEPERDKPGAESHRKNRSLVTNMDKLHLNLTELALAMNHVHSFSVFEHTIFPSEYLSSHLEARLNRAIVTLAGYNATTQEILRPSELLAGVKAYISFIQSLAQFLGADASRIVRNALLQQTQPLDSSGEQTVTTLYTNWYLESLLRQASSGAIVLSPAMQAFISLPRDGEQNFSAEEFSDISEMRALAEILGPYGMKFLSENLMWHVTSQIVELKKLVVENMDILVQIRSNFSKPELMASLLPQLTGAENVLKRMTIIGVILSFRAMAQEGLQEVFSAHCPFLMGPIECLKEFVTPDTDIKVTLSVFELACAAGVSCDIDPALVAAIANLKADNSSPEEEYKVACLLLIFLAVSLPLLATDPSSFFSIEKDGYNNNIHCLTKAIIQVSAALFTLYNKNIETHLKEFLVVASVSLLQLGQETDKLKTRNRESISLLMRLVVEESPFLTLDMLESCFPYVLLRNAYREVSRAFYLNRLPASSH
Consider B5, for which the negative fold change in peptide counts relative to TgWIP^WT in experiment [1] was found to be 1 fold; in experiment [2] it was 4 fold; in experiment [3], 2 fold; in experiment [4] it was 3 fold.
